± gives the standard deviation of the averaged measurements.
system: Saccharomyces cerevisiae; test: protein stability index of tFT-peptide fusion (C-terminal peptide) (PSI (0-1 scale)); higher = more stable (slower turnover); conditions: genetic background: das1 deletion; temperature: 30 C
Procedure: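 MPS profiling in S. cerevisiae of the tFT-X12 degron library: putative degron peptides plus stable controls, 12 aa, fused to the C-terminus of a sfGFP-mCherry timer. Cells are FACS-sorted into 8 mCherry/sfGFP bins and deep-sequenced. PSI runs from 0 (unstable) to 1 (stable). Backgrounds are wild type, das1Δ and doa10Δ at 30 °C, and wild type, das1Δ, cdc34-1 and cdc53-1 at 37 °C; 2-3 technical replicates each.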
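Note: PSI is a weighted mean of sequencing reads over stability bins, variants kept only with over 10 reads, mCherry proximal and sfGFP distal, peptide attached via GGGS linker.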

First: LLSFYFVLAYMV
Second: LLSYMVSLVVYL
The protein stability index of the first is higher: 0.32 ± 0.035 for the first, 0.175 ± 0.032 for the second.

LLYYQVFKTRRL and LNQRGKRKYLIM are within error of each other in protein stability index: 0.63 ± 0.026 for the first, 0.656 ± 0.038 for the second.

Compared with LNTVALIRIVVS, LPILFPAALRLY is higher in protein stability index: 0.18 ± 0.021 for the first, 0.521 ± 0.025 for the second.

First: LPPPYSPRLFHN
Second: LPTVSRPGALIC
The protein stability index of the first is higher: 0.699 ± 0.014 for the first, 0.626 ± 0.033 for the second.

First: LRCRAATSRTVS
Second: LRNYKCLRLLIC
The protein stability index of the first is higher: 0.6731 ± 0.002 for the first, 0.394 ± 0.028 for the second.

First: LRPTFLLLFRPL
Second: LRSLLIIYLLIF
The protein stability index of the first is higher: 0.377 ± 0.032 for the first, 0.253 ± 0.038 for the second.

LSACYSRYVFVS and LSASFYFVFFSN are within error of each other in protein stability index: 0.472 ± 0.016 for the first, 0.506 ± 0.023 for the second.

First: LSILLFVQFFPP
Second: LSLPTPLPSPPA
The protein stability index of the first is lower: 0.27 ± 0.021 for the first, 0.457 ± 0.027 for the second.

LSPLSPLLFRLI and LSRLIFKVSVLM are within error of each other in protein stability index: 0.516 ± 0.055 for the first, 0.504 ± 0.026 for the second.

LSRRFSLALFWT and LSSRGGRCRRLV are within error of each other in protein stability index: 0.654 ± 0.0085 for the first, 0.652 ± 0.016 for the second.

First: LVFAFFLLSFFI
Second: LVFSFFFLFFFM
The protein stability index of the first is higher: 0.478 ± 0.047 for the first, 0.375 ± 0.03 for the second.

First: LVLFYLWSSVWA
Second: LVLLIQKFLTDK
The protein stability index of the first is lower: 0.29 ± 0.032 for the first, 0.609 ± 0.024 for the second.

Compared with LVLSFVMLVSGH, LVPVWVGLRVLF is higher in protein stability index: 0.202 ± 0.013 for the first, 0.354 ± 0.042 for the second.

First: LVSCGNFLVFCF
Second: LVSSYVPFFFAL
The protein stability index of the first is lower: 0.234 ± 0.021 for the first, 0.664 ± 0.0071 for the second.

Going from LVSVLLLFWFLF to LVYCWFAEYFLV, the protein stability index rises from 0.358 ± 0.05 to 0.448 ± 0.027.

LVYLVCAYSECE and LWCLVWGGVWGV are within error of each other in protein stability index: 0.275 ± 0.039 for the first, 0.353 ± 0.041 for the second.

First: LWFVIYLLCFFV
Second: MFFSWVLSISLT
The protein stability index of the first is higher: 0.328 ± 0.022 for the first, 0.0335 ± 0.0093 for the second.

MIVAIQLVDHPP and MLECIIHLTITR are within error of each other in protein stability index: 0.414 ± 0.013 for the first, 0.431 ± 0.038 for the second.

MLSVVSFVSCTC and MRVYLVLWADSC are the same in protein stability index: 0.197 ± 0.017 for the first, 0.197 ± 0.015 for the second.

Compared with MSIWKIFIWRLG, MVAHTVRVKCGI is higher in protein stability index: 0.494 ± 0.019 for the first, 0.544 ± 0.031 for the second.

MVVILLVHWEYV and MWFFFICYFLSV are within error of each other in protein stability index: 0.172 ± 0.035 for the first, 0.246 ± 0.049 for the second.

First: MYESIRILVNKV
Second: NFCVLLQFCVLV
The protein stability index of the first is higher: 0.62 ± 0.022 for the first, 0.36 ± 0.024 for the second.

First: NFSLFVHFLGLC
Second: NNGLLLDILIKA
The protein stability index of the first is higher: 0.606 ± 0.021 for the first, 0.28 ± 0.044 for the second.

Compared with NTNITHHSVKLR, NVWCWGASCFFC is higher in protein stability index: 0.64 ± 0.026 for the first, 0.684 ± 0.0069 for the second.

PALLLFLRNLLL and PAPANRPTPRPV are within error of each other in protein stability index: 0.6419 ± 0.0029 for the first, 0.661 ± 0.03 for the second.

First: PCVCFIILGMLS
Second: PFARIIDILLVI
The protein stability index of the first is lower: 0.322 ± 0.035 for the first, 0.404 ± 0.042 for the second.

First: PFIPLLLAPALA
Second: PFPRCRLIFFFM
The protein stability index of the first is lower: 0.297 ± 0.036 for the first, 0.549 ± 0.025 for the second.

PFRSAYYLLFLL and PFVATRVSCFLT are within error of each other in protein stability index: 0.54 ± 0.013 for the first, 0.626 ± 0.087 for the second.

PHFDLLLCLSLN and PHLDLYRLSALI are within error of each other in protein stability index: 0.676 ± 0.049 for the first, 0.668 ± 0.032 for the second.

PHPPRPPCPPIL and PHVSALSRDPES are within error of each other in protein stability index: 0.674 ± 0.0068 for the first, 0.649 ± 0.021 for the second.

Compared with PISNMSIILLFL, PLFFGVQAFGGV is higher in protein stability index: 0.439 ± 0.028 for the first, 0.664 ± 0.029 for the second.

Compared with PLPCFVLRLPVF, PLPSEKAPTLLL is higher in protein stability index: 0.298 ± 0.031 for the first, 0.637 ± 0.0092 for the second.

First: PLPSFLYFILLR
Second: PLRKYLRHLLSL
The protein stability index of the first is lower: 0.333 ± 0.03 for the first, 0.647 ± 0.022 for the second.

PLRRPPPRPPWP and PLSPTNLSRLLS are within error of each other in protein stability index: 0.674 ± 0.024 for the first, 0.651 ± 0.012 for the second.

PPGSPPGSLRPT and PPHRTLLQLRTN are within error of each other in protein stability index: 0.664 ± 0.026 for the first, 0.661 ± 0.022 for the second.

First: PPPAPPLSMPAP
Second: PPPLCSTCIRCC
The protein stability index of the first is higher: 0.665 ± 0.014 for the first, 0.224 ± 0.027 for the second.

First: PPQDQAPVGVND
Second: PPRCLLPPPSRS
The protein stability index of the first is lower: 0.619 ± 0.019 for the first, 0.694 ± 0.015 for the second.

PPRDPGGLFTPF and PPSPAPLPDSLP are within error of each other in protein stability index: 0.679 ± 0.0077 for the first, 0.684 ± 0.038 for the second.

PPSPPLLFHFPP and PPTLLPPLHPAP are within error of each other in protein stability index: 0.661 ± 0.0077 for the first, 0.663 ± 0.011 for the second.

same assay, conditions: genetic background: das1 deletion; temperature: 37 C

First: LLSFYFVLAYMV
Second: LLSYMVSLVVYL
The protein stability index of the first is higher: 0.4765 ± 0.00078 for the first, 0.338 ± 0.024 for the second.

LLYYQVFKTRRL and LNQRGKRKYLIM are within error of each other in protein stability index: 0.696 ± 0.034 for the first, 0.723 ± 0.016 for the second.

First: LNTVALIRIVVS
Second: LPILFPAALRLY
The protein stability index of the first is lower: 0.234 ± 0.0055 for the first, 0.604 ± 0.01 for the second.

Going from LPPPYSPRLFHN to LPTVSRPGALIC, the protein stability index falls from 0.755 ± 0.022 to 0.69 ± 0.011.

Going from LRCRAATSRTVS to LRNYKCLRLLIC, the protein stability index falls from 0.726 ± 0.03 to 0.545 ± 0.022.

Going from LRPTFLLLFRPL to LRSLLIIYLLIF, the protein stability index falls from 0.474 ± 0.011 to 0.404 ± 0.0084.

Going from LSACYSRYVFVS to LSASFYFVFFSN, the protein stability index rises from 0.60517 ± 0.00057 to 0.6287 ± 0.006.

First: LSILLFVQFFPP
Second: LSLPTPLPSPPA
The protein stability index of the first is lower: 0.4113 ± 0.00046 for the first, 0.629 ± 0.015 for the second.

LSPLSPLLFRLI and LSRLIFKVSVLM are within error of each other in protein stability index: 0.62 ± 0.018 for the first, 0.5999 ± 0.0032 for the second.

First: LSRRFSLALFWT
Second: LSSRGGRCRRLV
The protein stability index of the first is lower: 0.707 ± 0.026 for the first, 0.7555 ± 0.0039 for the second.

Compared with LVFAFFLLSFFI, LVFSFFFLFFFM is lower in protein stability index: 0.549 ± 0.00087 for the first, 0.46047 ± 0.00043 for the second.

Going from LVLFYLWSSVWA to LVLLIQKFLTDK, the protein stability index rises from 0.4726 ± 0.0018 to 0.695 ± 0.079.

First: LVLSFVMLVSGH
Second: LVPVWVGLRVLF
The protein stability index of the first is lower: 0.384 ± 0.031 for the first, 0.537 ± 0.015 for the second.

First: LVSCGNFLVFCF
Second: LVSSYVPFFFAL
The protein stability index of the first is lower: 0.387 ± 0.0079 for the first, 0.752 ± 0.011 for the second.

Going from LVSVLLLFWFLF to LVYCWFAEYFLV, the protein stability index rises from 0.515 ± 0.037 to 0.586 ± 0.0069.

Compared with LVYLVCAYSECE, LWCLVWGGVWGV is higher in protein stability index: 0.477 ± 0.0062 for the first, 0.555 ± 0.0028 for the second.

Going from LWFVIYLLCFFV to MFFSWVLSISLT, the protein stability index falls from 0.482 ± 0.024 to 0.0704 ± 0.0084.

MIVAIQLVDHPP and MLECIIHLTITR are within error of each other in protein stability index: 0.522 ± 0.0075 for the first, 0.507 ± 0.011 for the second.

First: MLSVVSFVSCTC
Second: MRVYLVLWADSC
The protein stability index of the first is lower: 0.29 ± 0.0063 for the first, 0.361 ± 0.017 for the second.

MSIWKIFIWRLG and MVAHTVRVKCGI are within error of each other in protein stability index: 0.648 ± 0.028 for the first, 0.674 ± 0.0096 for the second.

Going from MVVILLVHWEYV to MWFFFICYFLSV, the protein stability index rises from 0.321 ± 0.017 to 0.411 ± 0.015.

First: MYESIRILVNKV
Second: NFCVLLQFCVLV
The protein stability index of the first is higher: 0.697 ± 0.015 for the first, 0.4832 ± 0.0002 for the second.

Compared with NFSLFVHFLGLC, NNGLLLDILIKA is lower in protein stability index: 0.687 ± 0.027 for the first, 0.463 ± 0.021 for the second.

Compared with NTNITHHSVKLR, NVWCWGASCFFC is higher in protein stability index: 0.712 ± 0.044 for the first, 0.773 ± 0.0087 for the second.

Compared with PALLLFLRNLLL, PAPANRPTPRPV is lower in protein stability index: 0.757 ± 0.017 for the first, 0.722 ± 0.011 for the second.

First: PCVCFIILGMLS
Second: PFARIIDILLVI
The protein stability index of the first is higher: 0.563 ± 0.01 for the first, 0.5395 ± 0.00065 for the second.

First: PFIPLLLAPALA
Second: PFPRCRLIFFFM
The protein stability index of the first is lower: 0.458 ± 0.0089 for the first, 0.742 ± 0.043 for the second.

First: PFRSAYYLLFLL
Second: PFVATRVSCFLT
The protein stability index of the first is lower: 0.6738 ± 0.00079 for the first, 0.685 ± 0.0089 for the second.

Compared with PHFDLLLCLSLN, PHLDLYRLSALI is higher in protein stability index: 0.718 ± 0.018 for the first, 0.79 ± 0.012 for the second.

PHPPRPPCPPIL and PHVSALSRDPES are within error of each other in protein stability index: 0.721 ± 0.0074 for the first, 0.7247 ± 0.0027 for the second.

Compared with PISNMSIILLFL, PLFFGVQAFGGV is higher in protein stability index: 0.593 ± 0.016 for the first, 0.7644 ± 0.0042 for the second.

Compared with PLPCFVLRLPVF, PLPSEKAPTLLL is higher in protein stability index: 0.465 ± 0.0064 for the first, 0.736 ± 0.036 for the second.

First: PLPSFLYFILLR
Second: PLRKYLRHLLSL
The protein stability index of the first is lower: 0.396 ± 0.024 for the first, 0.735 ± 0.036 for the second.

Compared with PLRRPPPRPPWP, PLSPTNLSRLLS is higher in protein stability index: 0.7032 ± 0.003 for the first, 0.744 ± 0.0077 for the second.

PPGSPPGSLRPT and PPHRTLLQLRTN are within error of each other in protein stability index: 0.713 ± 0.013 for the first, 0.727 ± 0.0085 for the second.

Compared with PPPAPPLSMPAP, PPPLCSTCIRCC is lower in protein stability index: 0.718 ± 0.026 for the first, 0.354 ± 0.0097 for the second.

Going from PPQDQAPVGVND to PPRCLLPPPSRS, the protein stability index falls from 0.74 ± 0.0071 to 0.693 ± 0.0092.

Going from PPRDPGGLFTPF to PPSPAPLPDSLP, the protein stability index falls from 0.7763 ± 0.003 to 0.715 ± 0.017.

Compared with PPSPPLLFHFPP, PPTLLPPLHPAP is lower in protein stability index: 0.7367 ± 0.005 for the first, 0.7217 ± 0.005 for the second.
